Measurements as given in publication PMC4333417 (Nucleic Acids Research, 2015).
Numbering of substitutions follows the chain as printed. Read-outs that look alike come from different tables or passages of the source.

Columns and labels:
[1] = molecular target: T1, Sco5333 (Streptomyces coelicolor, UniProt Q9ADD4 1-301); experiment: ITC
T1 sequence: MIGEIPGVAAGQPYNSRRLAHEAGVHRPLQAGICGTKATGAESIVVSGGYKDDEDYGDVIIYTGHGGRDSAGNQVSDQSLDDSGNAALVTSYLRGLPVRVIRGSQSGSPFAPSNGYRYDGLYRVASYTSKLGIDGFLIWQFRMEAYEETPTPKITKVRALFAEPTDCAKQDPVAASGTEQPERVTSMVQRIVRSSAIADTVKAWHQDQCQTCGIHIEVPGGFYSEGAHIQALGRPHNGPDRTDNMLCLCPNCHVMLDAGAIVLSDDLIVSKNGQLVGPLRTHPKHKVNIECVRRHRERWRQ

[2] = molecular target: MBD of mouse MeCP2 (mouse, UniProt Q9Z2D6 77-165); experiment: EMSA
Sequence of MBD of mouse MeCP2 (Q9Z2D6 77-165): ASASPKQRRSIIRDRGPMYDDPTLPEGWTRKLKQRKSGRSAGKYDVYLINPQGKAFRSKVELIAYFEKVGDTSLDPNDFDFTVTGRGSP

[3] = molecular target: T2, Sco5333 Y50A (Streptomyces coelicolor, UniProt Q9ADD4 1-301, Y50A); experiment: EMSA
T2 sequence: T1 sequence with Y50A

[4] = molecular target: T3, Sco5333 H253A (Streptomyces coelicolor, UniProt Q9ADD4 1-301, H253A); experiment: EMSA
T3 sequence: T1 sequence with H253A

[5] = molecular target: T4, Sco5333 G32A (Streptomyces coelicolor, UniProt Q9ADD4 1-301, G32A); experiment: EMSA
T4 sequence: T1 sequence with G32A

[6] = molecular target: T5, Sco5333 H228A (Streptomyces coelicolor, UniProt Q9ADD4 1-301, H228A); experiment: EMSA
T5 sequence: T1 sequence with H228A

[7] = molecular target: T1, Sco5333; experiment: ITC; remark: listed apart in the source
[8] = molecular target: T1, Sco5333; experiment: ITC; remark: listed apart in the source
[9] = molecular target: T6, MBD of human MeCP2 (human, UniProt P51608 77-166); experiment: EMSA
T6 sequence (P51608 77-166): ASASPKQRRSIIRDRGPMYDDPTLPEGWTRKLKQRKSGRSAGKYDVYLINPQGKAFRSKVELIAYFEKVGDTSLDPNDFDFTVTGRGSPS

[10] = molecular target: T7, Tbis1 (Thermobispora bispora DSM 43833, UniProt D6YAC6 2-309); experiment: EMSA
T7 sequence: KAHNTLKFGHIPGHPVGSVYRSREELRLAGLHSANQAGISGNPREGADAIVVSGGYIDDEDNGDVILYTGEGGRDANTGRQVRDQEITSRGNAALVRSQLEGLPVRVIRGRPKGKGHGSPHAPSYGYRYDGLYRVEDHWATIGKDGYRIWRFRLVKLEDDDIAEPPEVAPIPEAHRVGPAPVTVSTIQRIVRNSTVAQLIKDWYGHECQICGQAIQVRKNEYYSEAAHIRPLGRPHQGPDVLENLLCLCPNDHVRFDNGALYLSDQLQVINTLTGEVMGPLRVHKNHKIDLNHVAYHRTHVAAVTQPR

[11] = molecular target: T6, MBD of human MeCP2; experiment: EMSA; remark: listed apart in the source

B1: 54nt fully methylated (54nt-1/3) (dsDNA)
DNA 1: GAAACCCGACAGGACTATAAAGATACCGGCGTTTCCCCCTGGAAGCTCCCTCGT
DNA 2: ACGAGGGAGCTTCCAGGGGGAAACGCCGGTATCTTTATAGTCCTGTCGGGTTTC
modifications: 5mC at strand 1 pos 27 and strand 2 pos 27
- Kd [1]: 4.13 µM
- binding result [2]: binds
- binding result [3]: no binding
- binding result [4]: binds
- binding result [5]: no binding
- binding result [6]: binds

B2: 54nt bottom methylated (54nt-2/3) (dsDNA)
DNA 1: B1 DNA 1
DNA 2: B1 DNA 2
modifications: 5mC at strand 2 pos 27
- Kd [7]: 1.47 µM
- binding result [2]: no binding

B3: 54nt top methylated (54nt-1/4) (dsDNA)
DNA 1: B1 DNA 1
DNA 2: B1 DNA 2
modifications: 5mC at strand 1 pos 27
- Kd [8]: 3.14 µM
- binding result [2]: no binding

B4: 66nt fully methylated (66nt-1/3) (dsDNA)
DNA 1: AAAAACGGCGTTTCCGGGTTCCATAGGCTCCGCACCGGTCTCTGATGACCAGGGCATCACATTTTT
DNA 2: AAAAATGTGATGCCCTGGTCATCAGAGACCGGTGCGGAGCCTATGGAACCCGGAAACGCCGTTTTT
modifications: 5mC at strand 1 pos 36 and strand 2 pos 30
- binding signal [9]: 64 fold preference over non-methylated
- binding signal [10]: > 100 fold preference over non-methylated

B5: 66nt non-methylated (66nt-2/4) (dsDNA)
DNA 1: B4 DNA 1
DNA 2: B4 DNA 2
- binding signal [11]: 64 protein:DNA molar ratio for shift
